One assay addresses HLA-A*24:02. As to the kind of experiment: IEDB peptide-MHC binding, purified MHC/competitive/fluorescence; filed as Kd, often an IC50 or EC50 that approximates it; ≥ and ≤ were set here for values at or beyond the usual limits of such assays.
Assay [1] addresses HLA-A*02:01. The assay is described as above.
Assay [2] has as its target HLA-A*11:01. Described as above. The settings on record: source organism: Acinetobacter baumannii.
Assay [3] concerns the target HLA-A*31:01. The description is as above. Particulars: source organism: Acinetobacter baumannii.
Assay [4] addresses HLA-B*58:01. The description is as above. The settings on record: source organism: Acinetobacter baumannii.
The next assay addresses HLA-B*08:01. Described as above.
A further assay concerns the target HLA-B*07:02. The description is as above. The settings on record: source organism: Acinetobacter baumannii.
Another assay addresses HLA-B*35:01. The description is as above. The settings on record: source organism: Acinetobacter baumannii.
Assay [5] concerns the target HLA-A*26:01. The description is as above. Particulars: source organism: Acinetobacter baumannii.
Assay [6] deals with HLA-B*40:01. The assay is described as above.
In assay [7] the target is HLA-A*03:01. The description is as above. The settings on record: source organism: Acinetobacter baumannii.
In another assay the target is HLA-B*18:01. Described as above. The settings on record: source organism: Acinetobacter baumannii.
Assay [8] concerns the target HLA-B*27:05. Described as above. Particulars: source organism: Acinetobacter baumannii.
For a further assay, the target named is HLA-A*69:01. The description is as above.
Assay [9] concerns the target HLA-A*01:01. Described as above. The settings on record: source organism: Acinetobacter baumannii.
The next assay addresses HLA-B*15:01. The description is as above.
The target in assay [10] is HLA-A*11:01. The experiment in a line: IEDB peptide-MHC binding, purified MHC/direct/fluorescence; filed as Kd, often an IC50 or EC50 that approximates it; ≥ and ≤ were set here for values at or beyond the usual limits of such assays. The settings on record: source organism: Salmonella enterica.
For assay [11], the target named is HLA-A*31:01. Described as above. Particulars: source organism: Salmonella enterica.
The target of the next assay is HLA-B*15:17. The assay is described as above. The settings on record: source organism: Salmonella enterica.
The target of assay [12] is HLA-B*58:01. The description is as above. The settings on record: source organism: Salmonella enterica.
The target of the next assay is HLA-B*08:02. The description is as above. Particulars: source organism: Salmonella enterica subsp. enterica serovar Typhimurium str. LT2.
Another assay concerns the target HLA-B*38:01. The assay is described as above. The settings on record: source organism: Salmonella enterica subsp. enterica serovar Typhimurium str. LT2.
Assay [13] addresses HLA-A*26:01. The description is as above. Particulars: source organism: Salmonella enterica subsp. enterica serovar Typhimurium str. LT2.
Assay [14] deals with HLA-B*40:01. Described as above. The settings on record: source organism: Salmonella enterica.
The target in the next assay is HLA-B*46:01. The assay is described as above. The settings on record: source organism: Salmonella enterica.
The target of a further assay is HLA-A*26:02. Described as above. The settings on record: source organism: Salmonella enterica subsp. enterica serovar Typhimurium str. LT2.
Assay [15] has as its target HLA-A*03:01. The description is as above. Particulars: source organism: Salmonella enterica.
Another assay addresses HLA-B*48:01. Described as above. The settings on record: source organism: Salmonella enterica.
For assay [16], the target named is HLA-B*27:05. Described as above. Particulars: source organism: Salmonella enterica.
The target of another assay is HLA-B*57:01. Described as above. Particulars: source organism: Salmonella enterica.
For assay [17], the target named is HLA-A*01:01. The assay is described as above. Particulars: source organism: Salmonella enterica.
The next assay concerns the target HLA-B*15:09. The assay is described as above. The settings on record: source organism: Salmonella enterica subsp. enterica serovar Typhimurium str. LT2.
Assay [18] deals with HLA-A*02:01. The assay is described as above. The settings on record: source organism: Salmonella enterica.
The target of another assay is HLA-A*68:23. As to the kind of experiment: IEDB peptide-MHC binding, purified MHC/competitive/fluorescence; filed as Kd, often an IC50 or EC50 that approximates it; ≥ and ≤ were set here for values at or beyond the usual limits of such assays. Particulars: source organism: Shigella flexneri 5 str. 8401.
The next assay deals with HLA-B*40:13. Described as above. The settings on record: source organism: Shigella flexneri 5 str. 8401.
For another assay, the target named is HLA-B*15:42. The description is as above. Particulars: source organism: Shigella flexneri 5 str. 8401.
The target in another assay is HLA-A*32:15. The assay is described as above. Particulars: source organism: Shigella flexneri 5 str. 8401.
The target in a further assay is HLA-B*83:01. The assay is described as above. Particulars: source organism: Shigella flexneri 5 str. 8401.
The next assay addresses HLA-B*45:06. The assay is described as above. Particulars: source organism: Shigella flexneri 5 str. 8401.
[19] abbreviates: source organism: Salmonella enterica subsp. enterica serovar Typhi.
[20] abbreviates: source organism: Acinetobacter baumannii.

On to TLMFGFFGF, for which the Kd with HLA-A*24:02 (setting [19]) is no less than 5 µM; with HLA-A*02:01 [1] (setting [19]), 4 µM.
SIYAGNTPK: the Kd with HLA-A*11:01 [2] was 0.015 µM; in the assay with HLA-A*31:01 [3] it was 0.0344 µM; in the assay with HLA-A*24:02 (setting [20]) it was no less than 20 µM; with HLA-B*58:01 [4] it was no less than 20 µM; in the assay with HLA-B*08:01 (setting [20]) it was no less than 20 µM; in the assay with HLA-B*07:02, no less than 20 µM. Besides, the Kd is no less than 20 µM with HLA-B*35:01; no less than 20 µM with HLA-A*26:01 [5]; no less than 20 µM in the assay with HLA-B*40:01 [6] (setting [20]); 0.0385 µM with HLA-A*03:01 [7]; no less than 20 µM with HLA-B*18:01; no less than 20 µM in the assay with HLA-B*27:05 [8]. The Kd in the assay with HLA-A*69:01 (setting [20]), in the assay with HLA-A*01:01 [9], with HLA-B*15:01 (setting [20]) and with HLA-A*02:01 [1] (setting [20]) was no less than 20 µM in each case.
Turning to EIIFYHPTF, the Kd in the assay with HLA-A*11:01 [10] was no less than 20 µM; with HLA-A*31:01 [11] it was no less than 20 µM; with HLA-B*15:17, 0.107 µM; in the assay with HLA-B*58:01 [12] it was no less than 20 µM; with HLA-B*08:02 it was no less than 20 µM; with HLA-B*38:01, no less than 20 µM. The Kd with HLA-A*26:01 [13] was 0.803 µM; with HLA-B*40:01 [14], no less than 20 µM; with HLA-B*46:01 it was no less than 20 µM; with HLA-A*26:02, no more than 0.001 µM; with HLA-A*03:01 [15], no less than 20 µM; with HLA-B*48:01, no less than 20 µM. In addition, the Kd with HLA-B*27:05 [16], with HLA-B*57:01, with HLA-A*01:01 [17], in the assay with HLA-B*15:09, with HLA-A*02:01 [18] and in the assay with HLA-B*08:01 (setting [19]) was no less than 20 µM in each case. Moreover, the Kd in the assay with HLA-A*69:01 (setting [19]) and in the assay with HLA-B*15:01 (setting [19]) was no less than 20 µM in each case.
On to HEWKIPLLI, for which the dissociation constant Kd was 0.278 µM with HLA-A*68:23; 0.0097 µM with HLA-B*40:01 [6] (source organism: Shigella flexneri 5 str. 8401); 0.0109 µM in the assay with HLA-B*40:13; no less than 5 µM with HLA-B*15:42; 2.61 µM in the assay with HLA-A*32:15; 10.5 µM in the assay with HLA-B*83:01. Also, the Kd with HLA-B*45:06 was no less than 5 µM.

The values above are taken from the Immune Epitope Database (IEDB).
